± gives the standard deviation of the averaged measurements.
Tests used:
[1] = test system: VchCAST RNA-guided transposition machinery (E. coli BL21(DE3) host, lacZ target); assay: relative integration efficiency (T-LR orientation) vs wild-type transposon end (log2 (normalized fold change)); transposon end mutated: right end (5 bp flank + 75 bp right end); higher = more efficient transposition
Procedure: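 Pooled, barcoded VchCAST (Tn6677) mini-transposon donor libraries; each variable transposon-end sequence sits in a fixed pDonor mini-transposon context (10-bp barcode and cargo not included). Left- or right-end libraries were co-transformed with pEffector (TniQ-Cascade, TnsABC, lacZ crRNA, T7, 0.1 mM IPTG) into E. coli BL21(DE3) and grown 18 h at 37 C. T-LR and T-RL junction amplicons were sequenced; output/input barcode fold change was normalised to the mean of four wild-type barcodes and log2-transformed. Two biological replicates; zero-count/undetected variants carry floor values (-10 / -15), censored here. Barcode uncoupling by PCR recombination adds noise.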

[2] = test system: VchCAST RNA-guided transposition machinery (E. coli BL21(DE3) host, lacZ target); assay: relative integration efficiency (T-RL orientation) vs wild-type transposon end (log2 (normalized fold change)); transposon end mutated: right end (5 bp flank + 75 bp right end); higher = more efficient transposition
Summary of the method: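 Each barcoded pool, 1549 left-end or 1849 right-end transposon variants in a pUC57 mini-transposon donor, went into E. coli BL21(DE3) with a T7-driven effector plasmid (CRISPR array, tniQ-cas8-cas7-cas6, tnsA-tnsB-tnsC). Plates contained 0.1 mM IPTG and were held at 37°C for 18 h. Input plasmids and genomic integration junctions were PCR-amplified and read by Illumina sequencing, with two biological output replicates and four reference barcodes. Relative integration efficiency is the fold change of output over input barcode abundance, normalised to the reference barcodes and log-transformed.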

Sequence | relative integration efficiency (log2) [1] | relative integration efficiency (log2) [2]
ACATTTCTTCATACAACCATAAAATGATAATTACACCCATAAATGGATCATTATCACACCCAATTTAACTATAACGCTCTGATCATAGTCAGACCAACATTGCTACGACCCGTATTCGCACCGACAC | -3.69 ± 0.99 | -4.65 ± 0.36
ACATTTCTTCATACAACCATAAAATGATAATTACACCCATAAATTCATAATTATCACACCCAATTTAACTATAACGCTCTGATCATAGTCAGACCAACATTGCTACGACCCGTATTCGCACCGACAC | -3.54 ± 2.7 | -5.24 ± 0.61
ACATTTCTTCATACAACCATAAAATGATAATTACACCCATAAATTCATCATTATCACACCCAATTTAACTATAACGCTCTGATCATAGTCAGACCAACATTGCTACGACCCGTATTCGCACCGACAC | -3.38 ± 0.49 | -4.8 ± 0.27
ACATTTCTTCATACAACCATAAAATGATAATTACACCCATAAATTGATAATTATCACACCCAATTTAACTATAACGCTCTGATCATAGTCAGACCAACATTGCTACGACCCGTATTCGCACCGACAC | -2.1 ± 0.57 | -3.68 ± 0.52
ACATTTCTTCATACAACCATAAAATGATAATTACACCCATAAATTGATCATTATCACACCCAATTTAACTATAACGCTCTGATCATAGTCAGACCAACATTGCTACGACCCGTATTCGCACCGACAC | -3.3 ± 0.16 | -4.44 ± 0.65
ACATTTCTTGATACAACCATAAAATGATAATTACACCCATAAATGGATAATTATCACACCCAATTTAACTATAACGCTCTGATCATAGTCAGACCAACATTGCTACGACCCGTATTCGCACCGACAC | 0.0926 ± 0.35 | -2 ± 0.23
ACATTTCTTGATACAACCATAAAATGATAATTACACCCATAAATGGATCATTATCACACCCAATTTAACTATAACGCTCTGATCATAGTCAGACCAACATTGCTACGACCCGTATTCGCACCGACAC | 0.00332 ± 0.054 | -2.34 ± 0.22
ACATTTCTTGATACAACCATAAAATGATAATTACACCCATAAATTCATAATTATCACACCCAATTTAACTATAACGCTCTGATCATAGTCAGACCAACATTGCTACGACCCGTATTCGCACCGACAC | -0.103 ± 0.73 | -2.79 ± 0.24
ACATTTCTTGATACAACCATAAAATGATAATTACACCCATAAATTCATCATTATCACACCCAATTTAACTATAACGCTCTGATCATAGTCAGACCAACATTGCTACGACCCGTATTCGCACCGACAC | 0.193 ± 0.077 | -2.84 ± 0.46
ACATTTCTTGATACAACCATAAAATGATAATTACACCCATAAATTGATCATTATCACACCCAATTTAACTATAACGCTCTGATCATAGTCAGACCAACATTGCTACGACCCGTATTCGCACCGACAC | 1.34 ± 0.11 | -1.92 ± 0.52
ACATTTGAAGATACAACCATAAAATGATAATTACACCCATAAATTGATAATTATCACACCCATAAATTGATATTGCCTCTGATCATAGTCAGACCAACATTGCTACGACCCGTATTCGCACCGACAC | -0.786 ± 0.12 | -0.132 ± 0.019
ACATTTGATGATACAACCATATAATGATAATAACACCCATAAAATGATAATTATCACACCCAATTTAACTATAACGCTCTGATCATAGTCAGACCAACATTGCTACGACCCGTATTCGCACCGACAC | 1.073 ± 0.0088 | -1.61 ± 0.26
ACATTTGATGATACTACCATTTAATGATAATAACACCCATAAAATGATAATTATCACACCCAATTTAACTATAACGCTCTGATCATAGTCAGACCAACATTGCTACGACCCGTATTCGCACCGACAC | -0.158 ± 0.16 | -2.14 ± 0.37
ACATTTGATGATAGAACCATTTAATGATAATAACACCCATAAAATGATAATTATCACACCCAATTTAACTATAACGCTCTGATCATAGTCAGACCAACATTGCTACGACCCGTATTCGCACCGACAC | -0.836 ± 0.44 | -2.75 ± 0.52
ACATTTGCTGATACAACCATATAATGATAATAACACCCATAAAATGATAATTATCACACCCAATTTAACTATAACGCTCTGATCATAGTCAGACCAACATTGCTACGACCCGTATTCGCACCGACAC | 0.121 ± 0.33 | -2.08 ± 0.55
ACATTTGCTGATACTACCATATAATGATAATAACACCCATAAAATGATAATTATCACACCCAATTTAACTATAACGCTCTGATCATAGTCAGACCAACATTGCTACGACCCGTATTCGCACCGACAC | -0.422 ± 0.19 | -2.27 ± 0.43
ACATTTGCTGATACTACCATATAATGATAATAACACCCCTAAAATGATAATTATCACACCCAATTTAACTATAACGCTCTGATCATAGTCAGACCAACATTGCTACGACCCGTATTCGCACCGACAC | -2.64 ± 0.76 | -4.12 ± 0.62

Sequence | relative integration efficiency (log2) [1] | relative integration efficiency (log2) [2]
ACATTTGCTGATACTACCATTTAATGATAATAACACCCATAAAATGATAATTATCACACCCAATTTAACTATAACGCTCTGATCATAGTCAGACCAACATTGCTACGACCCGTATTCGCACCGACAC | -0.487 ± 0.3 | -2.31 ± 0.44
ACATTTGCTGATACTACCATTTAATGATAATAACACCCCTAAAATGATAATTATCACACCCAATTTAACTATAACGCTCTGATCATAGTCAGACCAACATTGCTACGACCCGTATTCGCACCGACAC | -4.07 ± 0.06 | -4.9716 ± 0.0047
ACATTTGCTGATAGAACCATATAATGATAATAACACCAATAAAATGATAATTATCACACCCAATTTAACTATAACGCTCTGATCATAGTCAGACCAACATTGCTACGACCCGTATTCGCACCGACAC | -2.34 ± 0.35 | -3.5 ± 0.17
ACATTTGCTGATAGAACCATATAATGATAATAACACCCATAAAATGATAATTATCACACCCAATTTAACTATAACGCTCTGATCATAGTCAGACCAACATTGCTACGACCCGTATTCGCACCGACAC | -1.38 ± 0.21 | -2.94 ± 0.33
ACATTTGCTGATAGAACCATTTAATGATAATAACACCAATAAAATGATAATTATCACACCCAATTTAACTATAACGCTCTGATCATAGTCAGACCAACATTGCTACGACCCGTATTCGCACCGACAC | -2.93 ± 0.82 | -4.53 ± 0.5
ACATTTGCTGATAGAACCATTTAATGATAATAACACCCATAAAATGATAATTATCACACCCAATTTAACTATAACGCTCTGATCATAGTCAGACCAACATTGCTACGACCCGTATTCGCACCGACAC | -2.38 ± 0.95 | -3.66 ± 0.41
ACATTTGGGGATACAACCATAAAATGATAATTACACCCATAAATTGATAATTATCACACCCATAAATTGATATTGCCTCTGATCATAGTCAGACCAACATTGCTACGACCCGTATTCGCACCGACAC | -5.49 ± 0.94 | -6.43 ± 0.081
ACATTTGGGTCTACAACCATAAAATGATAATTACACCCATAAATTGATAATTATCACACCCATAAATTGATATTGCCTCTGATCATAGTCAGACCAACATTGCTACGACCCGTATTCGCACCGACAC | -4.93 ± 0.96 | -7.19 ± 1.1
ACATTTGGTGATACAACCATATAATGATAATAACACCCATAAAATGATAATTATCACACCCAATTTAACTATAACGCTCTGATCATAGTCAGACCAACATTGCTACGACCCGTATTCGCACCGACAC | -3.69 ± 0.97 | -6.35 ± 0.32
ACATTTGTAAAAAAAACCATACGTTGATTTTACGAAACCATACGCTGAAATAAAAACAACCATACCTTGAAATTGCCTCTGATCATAGTCAGACCAACATTGCTACGACCCGTATTCGCACCGACAC | -4.82 ± 1.9 | -6.84 ± 0.49
ACATTTGTAAAAAAAACCATACGTTGATTTTACGAAACCATACGCTGAAATAAAAACAACCATACCTTGAAATTGCTTATAAAGTGTACAACACTTGAGAAAGTTTACTACAGGTATGCACCGACAC | < -10 | -7.441 ± 0.019
ACATTTGTAAAAAAAACCATACGTTGATTTTACGAAACCATACGCTGAAATAATCACAACCATAAATTGAAATTGCCTCTGATCATAGTCAGACCAACATTGCTACGACCCGTATTCGCACCGACAC | -6.41 ± 1.9 | -6.99 ± 0.21
ACATTTGTAAAAAAAACCATACGTTGATTTTACGAAACCATACGCTGAAATAATCACAACCATAACTTGAAATTGCCTCTGATCATAGTCAGACCAACATTGCTACGACCCGTATTCGCACCGACAC | < -10 | -6.63 ± 1.2
ACATTTGTAAAAAAAACCATACGTTGATTTTACGAAACCATACGCTGAAATAATCACAACCATACATTGAAATTGCCTCTGATCATAGTCAGACCAACATTGCTACGACCCGTATTCGCACCGACAC | -4.99 ± 1 | -6.97 ± 0.31
ACATTTGTAAAAACAACCATAAAATGATAATTACACCCATAAATTGATAATTATCACACCCATAAATTGATATTGCCTCTGATCATAGTCAGACCAACATTGCTACGACCCGTATTCGCACCGACAC | -0.286 ± 0.49 | 0.25 ± 0.023
ACATTTGTAAATAAAACCATACGTTGATTTTACGAAACCATACGCTGAAATAATCACACCCATAAATTGATATTGCCTCTGATCATAGTCAGACCAACATTGCTACGACCCGTATTCGCACCGACAC | -4.7 ± 0.57 | -6.595 ± 0.05
ACATTTGTACATACAACCATAAAATGATAATTACACCCATAAATTGATAATTATCACACCCATAAATTGATATTGCCTCTGATCATAGTCAGACCAACATTGCTACGACCCGTATTCGCACCGACAC | -1.97 ± 0.36 | -0.312 ± 0.12

Source: the supplement of paper PMC10201428
